Data on 8 molecules can be found in patent US20090317363A1.

Like-named read-outs stand apart in the source and are kept apart here.

Experiment [1] has as its target CCR5 (UniProt P51681). Description: cell-based or functional assay.
The target of experiment [2] is CCR5 (UniProt P51681). Put plainly: cell-based or functional assay. This is another data set of the same source.

Regarding PSC-RANTES (ligand), in experiment [1], the CCR5 sequestration (%) (% of control surface CCR5) turned out to be 75; the CCR5 signalling (%) (% of Emax of PSC-RANTES) worked out at 100; the anti-HIV potency (IC50, nM) by cell fusion assay amounted to 0.02 nM; the anti-HIV potency (IC50, nM) by viral replication assay is 0.281 nM.

“Met-RANTES (from UniProt P13501 24-91) (ligand)”: in experiment [1], the CCR5 sequestration (%) (% of control surface CCR5) was determined as 26; the CCR5 signalling (%) (% of Emax of PSC-RANTES) is 15; the anti-HIV potency (IC50, nM) by cell fusion assay amounted to 75.1 nM.

In experiment [1], “NNY-RANTES (n-nonanoyl-RANTES(2-68)) (from UniProt P13501 25-91) (ligand)” registered a CCR5 sequestration (%) (% of control surface CCR5) of 77; a CCR5 signalling (%) (% of Emax of PSC-RANTES) of 84.5; an anti-HIV potency (IC50, nM) by cell fusion assay of 0.29 nM.

In experiment [1], “AOP-RANTES, the aminooxypentane oxime of [glyoxylyl]1RANTES(2-68) (from UniProt P13501 25-91) (ligand)” displayed a CCR5 sequestration (%) (% of control surface CCR5) of 71; a CCR5 signalling (%) (% of Emax of PSC-RANTES) of 80.7; an anti-HIV potency (IC50, nM) by cell fusion assay of 1.12 nM.

B1: RANTES derivative: signature sequence SEQ ID NO: 24 fused to positions 10-68 of native RANTES (SEQ ID NO: 1) (ligand)
chain: QGPPLMSLQVCCFAYIARPLPRAHIKEYFYTSGKCSNPAVVFVTRKNRQVCANPEKKWVREYINSLEMS
In experiment [2], B1 displayed a CCR5 sequestration (%) (% of control surface CCR5) of 35; a CCR5 signalling (%) (% of Emax of PSC-RANTES) of 2.4; an anti-HIV potency (IC50, nM) by cell fusion assay of 0.03 nM; an anti-HIV potency (IC50, nM) by viral replication assay of 0.174 nM.

B2: RANTES derivative: signature sequence SEQ ID NO: 28 fused to positions 10-68 of native RANTES (SEQ ID NO: 1) (ligand)
chain: QGPPGSWSSVCCFAYIARPLPRAHIKEYFYTSGKCSNPAVVFVTRKNRQVCANPEKKWVREYINSLEMS
In experiment [2], B2 yielded a CCR5 sequestration (%) (% of control surface CCR5) of 59; a CCR5 signalling (%) (% of Emax of PSC-RANTES) of 45; an anti-HIV potency (IC50, nM) by cell fusion assay of 0.03 nM; an anti-HIV potency (IC50, nM) by viral replication assay of 0.213 nM.

B3: RANTES derivative: signature sequence SEQ ID NO: 26 fused to positions 10-68 of native RANTES (SEQ ID NO: 1) (ligand)
chain: QGPLSGWLQVCCFAYIARPLPRAHIKEYFYTSGKCSNPAVVFVTRKNRQVCANPEKKWVREYINSLEMS
As for B3, in experiment [2], the CCR5 sequestration (%) (% of control surface CCR5) came out at 41; the CCR5 signalling (%) (% of Emax of PSC-RANTES) came out at 9.4; the anti-HIV potency (IC50, nM) by cell fusion assay stood at 0.58 nM.

B4: RANTES derivative: signature sequence SEQ ID NO: 29 fused to positions 10-68 of native RANTES (SEQ ID NO: 1) (ligand)
chain: QGPPLGSMGPCCFAYIARPLPRAHIKEYFYTSGKCSNPAVVFVTRKNRQVCANPEKKWVREYINSLEMS
In experiment [2], B4 had a CCR5 sequestration (%) (% of control surface CCR5) of 36; a CCR5 signalling (%) (% of Emax of PSC-RANTES) of 22.6; an anti-HIV potency (IC50, nM) by cell fusion assay of 0.39 nM.
